This passage reports Kd results from patent US20210139582A1.

Experiment [1] addresses C-terminus biotinylated monomeric human CD32a^R (FcγRIIa, arginine-131 variant), recombinant (human) (UniProt P12318). Nature of the experiment: SPR, estimated steady state KD, monomeric IgG, pH 7.4.
The target of experiment [2] is C-terminus biotinylated monomeric human CD32a^H (FcγRIIa, histidine-131 variant), recombinant (human) (UniProt P12318). The description is as above.

pKd: −log10 of the molar value.

Chain of C-terminus biotinylated monomeric human CD32a^H (FcγRIIa, histidine-131 variant), recombinant (human) (P12318 34-218 limits assumed, change not shown): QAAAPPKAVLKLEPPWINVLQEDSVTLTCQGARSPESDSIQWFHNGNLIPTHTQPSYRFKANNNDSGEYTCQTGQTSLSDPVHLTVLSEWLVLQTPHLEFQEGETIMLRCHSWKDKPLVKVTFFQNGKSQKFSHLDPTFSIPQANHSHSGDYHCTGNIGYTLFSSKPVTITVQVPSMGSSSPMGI
Chain of C-terminus biotinylated monomeric human CD32a^R (FcγRIIa, arginine-131 variant), recombinant (human) (P12318 other isoform, or with tags, fused parts or gaps mutant): as the sequence (P12318 34-218 limits assumed, change not shown) above, with H134R counted along it
Chain of anti-NIP mouse IgG2a (mIgG2a^WT) (antibody) (P01863 whole entry): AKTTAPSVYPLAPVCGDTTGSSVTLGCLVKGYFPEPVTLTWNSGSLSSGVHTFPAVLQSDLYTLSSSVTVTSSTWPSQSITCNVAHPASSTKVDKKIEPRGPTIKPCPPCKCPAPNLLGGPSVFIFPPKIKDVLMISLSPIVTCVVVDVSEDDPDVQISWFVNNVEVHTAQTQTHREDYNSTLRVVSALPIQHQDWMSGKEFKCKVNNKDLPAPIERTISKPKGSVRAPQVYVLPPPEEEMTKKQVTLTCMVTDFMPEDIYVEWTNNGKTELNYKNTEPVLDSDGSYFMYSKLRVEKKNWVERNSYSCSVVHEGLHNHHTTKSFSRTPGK

By pKd is commonly meant −log10 of the Kd, conventionally taken in molar units. With “anti-NIP chimeric IgG with wild type human IgG1 Fc and murine anti-NIP antigen-binding domain (hIgG1^WT) (antibody)”, the pKd in experiment [1] is 5.70; in experiment [2] it was 5.89.
As for “anti-NIP hIgG1-I253A/H310A/H435A (hIgG1^IHH) (from UniProt P01857 1-330) (antibody)”, the pKd in experiment [1] is 5.43.
As for “anti-NIP hIgG1-M252Y/S254T/T256E/H433K/N434F (hIgG1^MST/HN) (from UniProt P01857 1-330) (antibody)”, the pKd in experiment [1] was 5.42.
In the case of anti-NIP hIgG2 (hIgG2^WT) (antibody), the pKd in experiment [1] was 5.28; in experiment [2], 5.85.
As to “anti-NIP mouse IgG1 (mIgG1^WT) (antibody)”, the pKd in experiment [1] is 6.10; in experiment [2] it was 5.09.
Regarding “anti-NIP mouse IgG2a (mIgG2a^WT) (antibody)”, the values for the negative-log Kd (pKd) in experiment [1] and in experiment [2] were 5.44 and 5.47, respectively.
Take “anti-NIP mouse IgG2b (mIgG2b^WT) (antibody)”: the results for the pKd in experiment [1] and in experiment [2] were 5.35 and 5.30, respectively.
